Measurements taken from the DeepSol protein solubility set.

assay: soluble on expression in E. coli; label from the status in PepcDB or PDB records

| Sequence | soluble on expression in E. coli |
| --- | --- |
| MHIKYDQAMDDETKVEAILYATRNPLSVRSISLILGIEAGAISRIIKKLRLEYKKRNTSLEIAKIGNKYRIQLKKEYYDFAYRVMEPELSKYETGFLATVALNEGASLSFFRKRYGSRTDDMISKLKTMSLIRTSKKGNGTAIYLGENFEKVFGITKKELLERATEYDRQN | soluble |
| MHILVVSVNYRTAPVEFREKLTFQAAELERAMTTLQNQKSVLENVIVSTCNRTEIYAVVDQLHTGRYYIKKFLADWFQLEIEEVAPYLTIFEQDGAIDHLFRVTCGLDSMVVGETQILGQIKDSFLEAQQVKATGTIFNELFKQVITLAKRAHSETTIGESAMSVSYAAVELGKKIFGELTDCHVLILGAGKMGELALQNLYGSGARKVTVMNRTLSKAEIMAEKYMGHAKPLSELQCALLEADILISSTGASDYVITKEMMTKVEKMRSGRPLFMVDIAVPRDIDPAIDELEGSFLYDIDDLQGVVEANRAERLKEAEKIQFMIEEEIVLFKTWLSTLGVVPLISALRDKALAIQSETMESLERKIPNLSDRERKVISKHTKSIINQLLKDPILVAKEIAAEEGADEKLALFAKIFDLEMEDVESRAEEVEHKRVWTPSVPSL | not soluble |
| MHKDIKLVKETEIRKPIGSPFIVYFSSISNNTHRFIEKLGFQHKRIPVDITQSITVSNEYVLICPTYSGGGNQVEGAVPKQVIQFLNNKHNRELCRGVIASGNTNFGDTFCLAGTVISKKLNVPLLYQFELLGTKNDVEQTQKIIANFFQNSN | soluble |
| MHKPCVIIPVFDHELAVPDVVKAVRAAGLPCVLVDDASSPACAAVLRQLAQGDEIYLVCLPVNQGKGGAVMAGFREAARLGFSHALQVDADGQHDLSDIPVFLEQSRQCPEALICGYPQYDESVPKGRLYARYLTHVWVWINTLSLQIRDSMCGFRLYPLAPVLVLIDAVRIGKRMDFDSEILVRLAWRGQAMRWLPTRVHYPQDGLSHFRLFHDNALISTMHAKLFFGMLMRLPLILWRRWRSLEHHHHHH | not soluble |
| MHKRFAALAAPLLYLACASAQADTMRCGSALVSVGDRAFEVQQKCGDPDHRDDVGYTLGSYDRREFKVEEWVYGPRNGVTYILTFEANKLKRIEFKR | not soluble |
| MHLLRTQPGGFVPDDGIAHLAQTPAELVILCSGDSHLALLAEAARALPDDYPSLRLANPMQLQNHASVDLYVEEVLRHARVILLSLHGGIGYWRYGVEQLVALAERGALLIPVPGDDRPDPELSALGNLPAEQAERFWQYLRQGGLENAGQFYRCLASQCLGRDYAWREPQALPRVALFHPRHAEATLEHWRADWQAGRPVVALLFYRTHLQAANTAFIARFCERLAAQGLNPLPIALASLKESACLAQVEDWLERSDAALIVNTTGFAQSNPEAPELRPFRRDVPVLQAICSLDNRPLWLDNPQGLGPRDLAMHVALPELDGRIVTRPISFKGLAWRSERSESDVVCYLADDERMDFVAELARRWAELARKPNAEKRVALVLANYPTRDGRIGNGVGLDTPAAALNILRALRQQGYPVDGLPASGTELIRQLLGGVSNDLEHLDLRPCAQSLALDDYLACFARLPERNRQAVLARWGEPQQDPMFRDGRMMVAGLRYGLTFVGIQPARGYQLDPAAVYHDPDLVPPHGYLAFYFWLRHAYRADALLHVGKHGNLEWLPGKGVGLSAECWPDALLGPLPNIYPFIVNDPGEGAQAKRRTQAVIIDHLMPPLTRAESYGPLRDLERLADEFYDASLLDPRRAEQLRGEILVLLRDNRLDREIGLQLSDDPDSWLPQLDAYLCDLKESQIRDGLHVFGESPSGRLRLDTLLALLRVPRGDGKGANAGLLKSLADDLGLGFDPLACDMGEAWQGARPACLEERGGEPWRTLGDTRERLELLALHWIERCLGGESPPATWRASGEVLRGLCEQVAPTLDACGGAEIDGLLAALEGRFVPAGPSGAPSRGRLDVLPTGRNFFSVDVRNLPTPTAWRIGFQSANLLLERHLQEHGDHLRQLGLSVWGTATMRTGGDDIAQALALLGVRPVWQAGSQRVADFEILPVSLLDRPRVDVTLRVSGFFRDAFANLIRLFDAAVQAVAELDEAEELNPLAARVRLERQRLEAQGTAPAEARRQAGWRIFGAKPGAYGAGVQGAIEERLWETRADLAEVYLNWGGYAYGAADDGTPARERFAQRLERLQAVLHNQDNREHDLLDSNDYYQFQGGMLAAVETLRGAPVASYHGDHSQPDNPRIRTLKEELNRVVRARAVNPKWIAGMKRHGYKGAFELAATVDYLCAFDATSELIDDHQYALLADAYLLDAETREFVRQHNPQALRDMAERLVEAQRRGLWQEPGAYREALENL | not soluble |
| MHLPPKLALTTGVLLVALPLATPAWGQPPTPASPLVQQLNNGNWLDPKEAETLRDELYYQRAIHAYMTMLPALNVIGMRDGSEKVFGAGYNVLPVWKERMDARTMVPTPNADVIYSMSYLDLKKTGPLVVKAPANVIGMFTDFFQRTLTDVGAIGPDRARGGLYLILPPDYDGHVPSSYFVVKSPTYNVFLFFRTIMGQGKGKPDPAPAVKAAETTRVYPLWAEEKDIKPMEFPDGSGKHINMMYPVDQEYWTKLKEFVDYEPVSAIDPELRGVLASIGIVKGQPFKPTAREQELLKRAVETAPKMILAMRQLGREDKRHLYYKDRQWERAWAGATAEWMQDSYLDVNQRATFFQIAYSSAPAMVMRTTGAGSKYPFTARDANGEFLNGSATYKLRMPPDAPAALFWAVTAYNVTDGTMPETDQLMPSTNGYYDIPKQKDGSTEIWFGPQKPADVADAAFIKTIPNRNFLVTLRLYGAEDAFYDQTWKPDDVVKVKLEHHHHHH | not soluble |
| MHNQTVRATVFKANAAAPQTKQIYEDDFSELYGEDIIAPPYNIIELKTIAEYSTILQQCIDAYRVNITGFGFDVEYTFDVNASDVDQAKKKRAEKDWARLEAFYKCLHFDESAEMILGYAIEDREKTGNGFMEVLRDGAGKPAGIEYLDVKYMRVCGAGEPVEVSFVYEENGKMKRIKRQKRFRKYVQMINGKKVFFKEYGDPRKMDIRTGEYVNTLAEKYQANEAIHLKIGSGVYGVPRWIGNIVNLYGARKAEELNFMYFKQGRHVPAAITVENGMLSEASYRELQEYMNDLESVENAHKFLLIEAEGIAKEKDLHGGEDITPVSVEIKSLAEILQNDALFLEYDEKSRNKLRSAFRLPPLYTGEAQEYNRATADTARKITEEQVFQPERKTLVNKLNTLLLPELNIHDVRLTLKGPDFRDPLEIAKVLGPFITAGAVSPNDLRDLAGRVLGKTLEEWPEDIYKRPAGQDAEKTNLAALMQELKESIEDIKTS | not soluble |
| MHPKRTPGTCFPGRGRPAPPRISVTVPEEVSQQEDLLVARSSELGGNSNTAVALTFNHALTAVRFVCGNDMREGTVKQVRLKNVYSRGTYNMGTQTWSGLDTPASFSQALDKVTTGTADEALTSEAQTFMMLPQRFPEGAQIEVLFTDDTHTGHTLIADIKGSEWPMGKTVTYKISSSSLNWTYTLDVTALADFTYTGGTQQYCVTSYRQNAQGEKEAAEWTAQYAEDGTTWTDTKPVWLTAFTASGTGGEFAQPCDATVEAQTGISNDLHENALKAATAKGSETTPYNLSNNTGGNTVENTANCYVVNAPGYYSLPLVYGNAIKNSATNASAYTSTVTGTNILNPFINHAGNGITDPYISGNGCTPAKAELVWQDAMNLVTDIKYNADSNGGNISFKVDRSSIRQGNAVIAIKDVSDAILWSWHVWVTDEDINNVIEITNHQNVKYNFMPVNLGQCDGNTITYEERSCKVKFIAGDQSKEITIKQLANVIATGSNAPFYQWGRKDPLYPSNGMGNTTKIWYDKEGIPSTANPMKGTFSAGNDCIKNCILNPNLMHNRYNGDYTYYNLWSADNKTTSANDNPVNKTIYDPCPVGFKLPASNAFTGFTTTGESVSSSTQVNGTWSSSEKGWYFYTNSEKTQSIFFPALGYRSYSTMRPGSIGTQGCFWSAHPVAKGNNYYLRTSSVDVQPTYMVDRGFGYALRPCQD | not soluble |
| MHRRSIINHSRPDKLKRGMHVEIASNVINDLQFFDQQIRWAKADLVQQVSRNRLNRARTYRGYLNQCLPHELVADIQRAVIKSINAISLINLEHHHHHH | not soluble |
| MHYCDLDIAECDGVYPPSEDSFLIIEYASCSGKAIEIGCGTGIVSICFLKRGCDIEAVDISDLAVECAKDNASRNGLTLKVYRSDLFSGVSGTYDTILFNAPYIPVEGEDASWSGGRNLEVVSRFLGQAREHLSASGQIYIVLSDLTDNEGMFRMMGYDYFIIKKISFEFEAIVLYKLTLKALEHHHHHH | soluble |
| MIDHALALTHIDERGAARMVDVSEKPVTLRVAKASGLVIMKPSTLRMISDGAAAKGDVMAAARIAGIAAAKRTGDLIPLCHPLGLDAVSVTITPCEPDRVKILATTTTLGRTGVEMEALTAVSVAALTIYDMCKAVDRAMEISQIVLQEKSGGRSGVYRRSASDLACQSR | soluble |
